Columns and labels:
[1] = target: human melanocortin-4 receptor (human) (UniProt P32245); experiment: cell-based or functional assay
[2] = target: melanocortin-1 receptor (mouse (B-16 melanoma cells); in some instances human (hMC1-R)) (UniProt Q01727); experiment: [I125]-NDP-α-MSH competition, MC1-R membranes
[3] = target: human melanocortin-4 receptor (human) (UniProt P32245); experiment: [I125]-NDP-α-MSH competition, hMC4-R HEK-293 membranes

Chain of human melanocortin-4 receptor (human) (P32245 whole entry): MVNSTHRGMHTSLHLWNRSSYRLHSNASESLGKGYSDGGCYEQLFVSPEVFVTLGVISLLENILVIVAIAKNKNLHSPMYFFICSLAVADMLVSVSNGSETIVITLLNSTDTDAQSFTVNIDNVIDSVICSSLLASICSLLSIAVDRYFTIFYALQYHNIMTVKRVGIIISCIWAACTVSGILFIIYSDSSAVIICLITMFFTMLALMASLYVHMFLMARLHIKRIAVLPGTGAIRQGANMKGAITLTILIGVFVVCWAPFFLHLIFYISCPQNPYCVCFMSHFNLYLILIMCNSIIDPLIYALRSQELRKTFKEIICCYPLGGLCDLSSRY
Chain of melanocortin-1 receptor (mouse (B-16 melanoma cells); in some instances human (hMC1-R)) (Q01727 whole entry): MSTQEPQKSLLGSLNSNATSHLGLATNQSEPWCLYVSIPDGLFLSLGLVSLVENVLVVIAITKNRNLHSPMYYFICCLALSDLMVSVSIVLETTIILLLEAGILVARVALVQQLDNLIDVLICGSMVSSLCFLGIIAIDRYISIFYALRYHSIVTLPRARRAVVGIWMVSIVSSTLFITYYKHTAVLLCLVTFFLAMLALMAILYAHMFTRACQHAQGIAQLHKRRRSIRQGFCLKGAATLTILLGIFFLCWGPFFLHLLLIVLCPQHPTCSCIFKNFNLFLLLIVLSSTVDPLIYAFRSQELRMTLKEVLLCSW

Row | Substance | EC50, cAMP, 10 ng/mL Doxycycline [1] [nM] | Intrinsic Activity, cAMP, 0.1 ng/mL Doxycycline [1] [%] | Intrinsic Activity, cAMP, 10 ng/mL Doxycycline [1] [%] | Ki [2] [nM] | Ki [3] [nM] | EC50, cAMP, 0.1 ng/mL Doxycycline [1] [nM]
1 | Ac-Arg-cyclo(Glu-Hyp-D-Phe(3-Cl)-Arg-Trp-Orn)-NH2 (peptide) | 0.55 | 6 | 90 | 430 | 2 | –
2 | Ac-Arg-cyclo(Glu-Thr(Bzl)-D-Phe(2-Cl)-Arg-Trp-Orn)-NH2 (peptide) | 0.157 | 30 | 93 | 12 | 0.35 | 0.37
3 | Ac-Arg-cyclo(Glu-Hyp-D-Phe(4-CN)-Arg-Trp-Orn)-NH2 (peptide) | 0.5 | 8 | 93 | 880 | 2 | –
4 | Ac-Arg-cyclo(Glu-Hyp-D-Phe(4-F)-Arg-Trp-Orn)-NH2 (peptide) | 0.14 | 62 | 95 | 89 | 1 | 0.45
5 | Ac-Arg-cyclo(Glu-Dab-D-Phe(3-CN)-Arg-Trp-Orn)-NH2 (peptide) | 2 | 29 | 100 | 43 | 33 | 37
6 | Ac-Arg-cyclo(Glu-Orn-D-Phe(3-Cl)-Arg-Trp-Orn)-OH (peptide) | 0.8 | 28 | 98 | 23 | 20 | 10
7 | Ac-Arg-cyclo(Glu-Dab(Acetyl)-D-Phe(2-Cl)-Arg-Trp-Orn)-NH2 (peptide) | 0.3 | 41 | 98 | 30 | 11 | 5

Substances with a lower Ki [2], results first:

Row | EC50, cAMP, 10 ng/mL Doxycycline [1] [nM] | Intrinsic Activity, cAMP, 0.1 ng/mL Doxycycline [1] [%] | Intrinsic Activity, cAMP, 10 ng/mL Doxycycline [1] [%] | Ki [2] [nM] | Ki [3] [nM] | EC50, cAMP, 0.1 ng/mL Doxycycline [1] [nM] | Substance
8 | 0.235 | 74 | 93 | 8 | 8 | 2 | Ac-Arg-cyclo(Glu-Orn-D-Phe(2-Cl)-Arg-Trp-Orn)-OH (peptide)
9 | 0.2 | 31 | 99 | 6 | 0.6 | 0.325 | Ac-D-Arg-cyclo(Orn-His-D-Phe(4-CN)-Arg-Trp-Glu)-NH2 (peptide)
10 | 0.4 | 22 | 95 | 3 | 0.6 | 0.64 | Ac-D-Arg-cyclo(Orn-His-D-Phe(3-Cl)-Arg-Trp-Glu)-NH2 (peptide)
11 | 0.17 | 77 | 94 | 2 | 2 | 0.45 | Ac-Arg-cyclo(Glu-Dab-D-Phe(3-F)-Arg-Trp-Orn)-NH2 (peptide)
12 | 0.245 | 11 | 100 | 0.5 | 0.055 | – | Ac-Arg-cyclo(Glu-Dab-D-Phe(2,4-diCl)-Arg-Trp-Orn)-NH2 (peptide)
13 | 0.06 | 83 | 90 | 0.5 | 0.25 | 0.065 | Ac-Arg-cyclo(Glu-Dab-D-Phe(4-F)-Arg-Trp-Orn)-NH2 (peptide)
14 | 0.16 | 28 | 100 | 0.3 | 0.08 | 0.07 | Ac-Arg-cyclo(Glu-Dab-D-Phe(4-Cl)-Arg-Trp-Orn)-NH2 (peptide)
15 | 0.38 | 5 | 92 | 0.2 | 0.055 | – | Ac-Arg-cyclo(Glu-Dab-D-Phe(3,4-diCl)-Arg-Trp-Orn)-NH2 (peptide)

Reference: patent US20100311648A1
